One assay concerns the target T1, fibrinogen (Homo sapiens, UniProt P02671).
T1 construct: purchased Enzyme Research Laboratories (South Bend, Ind.)
T1 sequence (P02671 20-644 isoform P02671-2 limits assumed): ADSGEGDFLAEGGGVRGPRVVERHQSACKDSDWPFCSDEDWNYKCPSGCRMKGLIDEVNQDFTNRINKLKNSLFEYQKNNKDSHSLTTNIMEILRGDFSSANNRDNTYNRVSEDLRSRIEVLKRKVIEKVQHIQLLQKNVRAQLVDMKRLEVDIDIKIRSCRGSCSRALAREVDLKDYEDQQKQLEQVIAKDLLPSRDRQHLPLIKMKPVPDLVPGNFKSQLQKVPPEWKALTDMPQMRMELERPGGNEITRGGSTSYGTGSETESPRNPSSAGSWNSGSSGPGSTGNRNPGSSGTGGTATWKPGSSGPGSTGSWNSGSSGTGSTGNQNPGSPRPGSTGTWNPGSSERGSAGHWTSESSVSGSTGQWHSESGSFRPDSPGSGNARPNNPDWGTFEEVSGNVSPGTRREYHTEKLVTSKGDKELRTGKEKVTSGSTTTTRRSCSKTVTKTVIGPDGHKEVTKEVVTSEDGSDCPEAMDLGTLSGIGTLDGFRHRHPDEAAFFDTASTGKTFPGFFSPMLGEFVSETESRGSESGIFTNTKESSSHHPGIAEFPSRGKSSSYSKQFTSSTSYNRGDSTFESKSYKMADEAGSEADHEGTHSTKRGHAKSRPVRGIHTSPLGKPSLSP
T1 sequence (P02675 31-491 partner): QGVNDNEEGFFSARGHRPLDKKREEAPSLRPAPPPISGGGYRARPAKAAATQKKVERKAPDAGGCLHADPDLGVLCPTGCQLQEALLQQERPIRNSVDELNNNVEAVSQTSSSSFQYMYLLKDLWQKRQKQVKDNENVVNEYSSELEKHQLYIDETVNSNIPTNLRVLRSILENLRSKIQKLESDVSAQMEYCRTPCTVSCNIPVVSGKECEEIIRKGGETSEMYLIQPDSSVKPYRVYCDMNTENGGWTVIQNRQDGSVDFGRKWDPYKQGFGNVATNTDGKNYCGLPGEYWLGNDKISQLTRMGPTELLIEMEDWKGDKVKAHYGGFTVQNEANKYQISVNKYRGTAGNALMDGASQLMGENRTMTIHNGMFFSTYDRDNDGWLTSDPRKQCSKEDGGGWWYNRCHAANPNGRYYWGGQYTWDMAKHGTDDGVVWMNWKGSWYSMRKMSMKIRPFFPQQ
T1 sequence (P02679 27-437 isoform P02679-2 partner limits assumed): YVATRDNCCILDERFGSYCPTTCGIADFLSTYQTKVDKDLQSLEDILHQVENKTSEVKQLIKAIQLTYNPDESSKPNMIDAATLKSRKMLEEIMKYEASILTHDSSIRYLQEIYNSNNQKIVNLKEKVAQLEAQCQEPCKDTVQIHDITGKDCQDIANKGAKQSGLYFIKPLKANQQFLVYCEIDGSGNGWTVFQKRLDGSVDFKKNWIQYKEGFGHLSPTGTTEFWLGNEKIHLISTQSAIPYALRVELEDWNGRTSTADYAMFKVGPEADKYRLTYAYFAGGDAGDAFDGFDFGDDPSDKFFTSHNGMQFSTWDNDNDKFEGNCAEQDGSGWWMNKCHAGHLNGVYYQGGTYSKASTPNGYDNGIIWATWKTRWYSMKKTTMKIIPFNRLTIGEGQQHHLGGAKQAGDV
The experiment in a line: Factor XIIIa-mediated incorporation of FITC-labeled thymosin β4 into fibrinogen (spectrophotometric). Type of assay: biochemical. Conditions: fibrinogen 9 μM, thymosin β4 30 μM, factor XIIIa, 4 hours, 37° C. The procedure: (§1) Reactions of incorporation of FITC-labeled and unlabeled thymosin β4 into fibrinogen and fibrin were performed in Eppendorf tubes containing a mixture of fibrinogen at 3 mg/mL (9 μM) and thymosin β4 or FITC-labeled thymosin β4 at […] (30 μM) in 100 μL TBS with 2.5 mM CaCl2. The reactions were initiated by addition of FXIIIa(Ca) or FXIIIa(Thr) to final concentration of 30 μg/mL. The final concentration of thrombin in the FXIIIa(Thr)-containing mixtures was made at 2.5 NIH u/mL, sufficient to rapidly form fibrin clot which was observed visually. The reactions with FITC-labeled thymosin β4 lasted for 4 hours at 37° C. in the dark and were stopped by heat inactiviation of the enzymes in boiling water for 5 min during fibrinogen and fibrin denatured and precipitated. The pellets were centrifuged and washed 3 times in TBS and then solubilized. The amounts of fibrin(ogen) and FITC-labeled thymosin β4 in the solubilized pellet were determined spectrophotomertrically using absorption molar coefficients E280,1%=15.0 and ε495=72,000 M^−1cm^−1, respectively. To prepare samples with unlabeled thymosin β4 for analysis by SDS-PAGE and Western blot the reaction mixtures at the indicated time were heat-inactivated as above and solubilized by addition of sample buffer (Invitrogen) containing SDS and reducing agent.

The target of the next assay is T2, fibrin (Homo sapiens, UniProt P02671).
T2 construct: purchased Enzyme Research Laboratories (South Bend, Ind.); host or cells: fibrin generated in the well or tube from the purchased fibrinogen with bovine thrombin
T2 sequence (P02671 36-629): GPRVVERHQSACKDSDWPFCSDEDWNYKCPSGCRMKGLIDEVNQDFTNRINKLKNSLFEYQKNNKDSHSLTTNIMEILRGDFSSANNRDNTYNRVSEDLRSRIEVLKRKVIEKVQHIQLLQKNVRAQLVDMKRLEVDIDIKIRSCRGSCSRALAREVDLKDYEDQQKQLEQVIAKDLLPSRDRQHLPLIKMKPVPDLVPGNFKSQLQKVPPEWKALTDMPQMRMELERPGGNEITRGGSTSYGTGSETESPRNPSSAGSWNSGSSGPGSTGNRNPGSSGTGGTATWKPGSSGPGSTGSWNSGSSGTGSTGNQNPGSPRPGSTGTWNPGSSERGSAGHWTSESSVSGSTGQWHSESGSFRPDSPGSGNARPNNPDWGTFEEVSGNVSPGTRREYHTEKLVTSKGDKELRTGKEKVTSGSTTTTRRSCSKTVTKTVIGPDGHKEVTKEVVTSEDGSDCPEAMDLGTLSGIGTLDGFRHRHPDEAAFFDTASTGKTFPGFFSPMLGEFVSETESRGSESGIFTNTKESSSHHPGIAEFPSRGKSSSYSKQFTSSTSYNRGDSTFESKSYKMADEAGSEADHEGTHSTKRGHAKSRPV
T2 sequence (P02675 45-491 partner): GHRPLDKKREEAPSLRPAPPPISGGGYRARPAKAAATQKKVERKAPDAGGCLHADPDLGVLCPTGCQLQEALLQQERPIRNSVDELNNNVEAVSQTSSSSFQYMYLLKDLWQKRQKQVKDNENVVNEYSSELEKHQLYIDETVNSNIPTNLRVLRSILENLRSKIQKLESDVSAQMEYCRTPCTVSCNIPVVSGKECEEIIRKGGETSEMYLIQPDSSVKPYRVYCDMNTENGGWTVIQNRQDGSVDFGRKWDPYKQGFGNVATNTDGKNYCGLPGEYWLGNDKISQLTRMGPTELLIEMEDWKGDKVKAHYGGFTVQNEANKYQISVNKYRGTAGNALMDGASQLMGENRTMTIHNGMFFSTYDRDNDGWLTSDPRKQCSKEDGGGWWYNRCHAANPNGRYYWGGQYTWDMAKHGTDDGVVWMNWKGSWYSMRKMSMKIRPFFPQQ
T2 sequence (P02679 27-437 isoform P02679-2 partner): T1 sequence (P02679 27-437 isoform P02679-2 partner limits assumed)
The experiment in a line: Factor XIIIa-mediated incorporation of FITC-labeled thymosin β4 into fibrin (spectrophotometric). Type of assay: biochemical. Conditions: fibrinogen 9 μM, thymosin β4 30 μM, factor XIIIa with thrombin, 4 hours, 37° C. The method, then:
as §1

Experimental findings from patent US20100204147A1, “Methods For Delivering Thymosin Beta 4, Analogues, Isoforms and Other Derivatives” (REGENERX BIOPHARMACEUTICALS, INC., priority 2003, published 2010) are described below.

On to “FITC-thymosin β4: Fluorescence labeled thymosin β4 prepared by reaction with fluorescein isothiocyanate; 0.9 mole of FITC per mole of thymosin β4 [reference compound]”, for which the “degree of incorporation into fibrinogen” value with fibrinogen is recorded as “about 0.2 moles per mole”. For the same substance, the “degree of incorporation into fibrin” value with fibrin is given as ~0.4 moles per mole.
